Test results reported in paper doi:10.1101/2022.04.15.488344 (bioRxiv, 2022).

Biological target: the molecule itself
Experiment: crystal structure

B1: ERα ligand binding domain (LBD) (305–555) with a Y537S mutation (domain or fragment, UniProt P03372 305-555, looked up)
chain: SLALSLTADQMVSALLDAEPPILYSEYDPTRPFSEASMMGLLTNLADRELVHMINWAKRVPGFVDLTLHDQVHLLECAWLEILMIGLVWRSMEHPGKLLFAPNLLLDRNQGKCVEGMVEIFDMLLATSSRFRMMNLQGEEFVCLKSIILLNSGVYTFLSSTLKSLEEKDHIHRVLDKITDTLIHLMAKAGLTLQQQHQRLAQLLLILSHIRHMSNKGMEHLYSMKCKNVVPLSDLLLEMLDAHRLHAPTSR
Question: Which “stoichiometry N” value does the source give for B1 here?
Answer: 2
